The values below come from article PMC11418127, “Structures of LIG1 uncover the mechanism of sugar discrimination against 5′-RNA-DNA junctions during ribonucleotide excision repair”.

In data set [1] the target is LIG1 WT (C-terminal, Δ261) (UniProt P18858 262-919). Briefly: X-ray crystallography; AMP covalently bound to K568 (step 1); 1 mM ATP, 1 mM EDTA; Crystallization: 20 mM Tris-HCl pH 7.0, 200 mM NaCl, 1 mM DTT, 1 mM EDTA, 1 mM ATP, LIG1 27 mg/ml, DNA:protein 1.4:1, hanging drop at 20 °C. The conditions noted are these: protein: recombinant; tags: 6xHis; nicked duplex: 18-nt template, 11-nt upstream, 7-nt downstream; blunt outer ends.
Sequence of LIG1 WT (C-terminal, Δ261) (P18858 262-919, stated change not applied): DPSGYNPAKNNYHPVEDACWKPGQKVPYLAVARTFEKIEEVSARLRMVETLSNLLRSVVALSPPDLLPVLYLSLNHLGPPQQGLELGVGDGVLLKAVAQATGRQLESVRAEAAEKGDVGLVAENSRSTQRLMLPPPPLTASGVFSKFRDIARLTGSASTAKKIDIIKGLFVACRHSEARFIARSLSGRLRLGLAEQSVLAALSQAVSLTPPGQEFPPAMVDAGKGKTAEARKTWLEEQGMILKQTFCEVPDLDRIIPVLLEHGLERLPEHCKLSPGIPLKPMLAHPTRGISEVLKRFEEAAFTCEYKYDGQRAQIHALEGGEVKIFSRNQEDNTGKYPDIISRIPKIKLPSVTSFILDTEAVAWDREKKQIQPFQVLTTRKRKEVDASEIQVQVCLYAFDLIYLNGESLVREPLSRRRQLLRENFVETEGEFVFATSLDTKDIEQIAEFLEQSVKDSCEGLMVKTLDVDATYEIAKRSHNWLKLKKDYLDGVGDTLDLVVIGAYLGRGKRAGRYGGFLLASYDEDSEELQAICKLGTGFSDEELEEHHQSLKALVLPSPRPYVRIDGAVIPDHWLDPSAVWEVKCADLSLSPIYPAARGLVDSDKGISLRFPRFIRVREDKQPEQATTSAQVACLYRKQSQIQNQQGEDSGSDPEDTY

In data set [2] the target is LIG1 EE/AA (C-terminal, Δ261) (UniProt P18858 262-919, E346A;E592A). The description is as above. The conditions noted are these: protein: recombinant; tags: 6xHis; nicked duplex: 18-nt template, 11-nt upstream, 7-nt downstream; blunt outer ends.
Sequence of LIG1 EE/AA (C-terminal, Δ261) (P18858 262-919 E346A/E592A): as the sequence (P18858 262-919, stated change not applied) above, with E85A, E331A counted along it

B1: nick DNA 5'-rG:C (mixed)
DNA 1: GTCCGACCACGCATCAGC
DNA 2: GCTGATGCGTG
DNA 3: GTCGGAC
modifications: ribonucleotide rG at position 1 of downstream strand (strand 3); 5'-phosphate on strand 3
Regarding B1, the binding result in data set [1] and in data set [2] was “binds” throughout.
